Article PMC7766840, “Preclinical Evaluation of the Copper-64 Labeled GRPR-Antagonist RM26 in Comparison with the Cobalt-55 Labeled Counterpart for PET-Imaging of Prostate Cancer” (Molecules, 2020)

Columns and labels:
in vivo = experiment: in vivo; set-up: species or system BALB/c nu/nu mice; conditions: female, BALB/c nu/nu, mouse, total radioactivity
Protocol: (§1) For biodistribution studies, 16 female BALB/c nu/nu mice (age 15–16 weeks) bearing PC-3 xenografts (inoculated subcutaneously with 8 × 10^6 PC-3 cells three weeks before the experiment) were randomized into groups of four. The mice were intravenously injected into the tail vein with a mixture of [^64Cu]Cu-X-RM26 and [^57Co]Co-X-RM26 and were euthanized at 3 and 24 h p.i. Injected activity was adjusted to 300 kBq/mouse for ^64Cu- and 40 kBq/mouse for ^57Co-labeled conjugates. The total injected peptide mass was adjusted to 45 pmol/mouse (in 100 μL). Blood, kidney, pancreas, liver, lung, bone, muscle, tumor, spleen, stomach, small intestines, and the rest of the GI tract with content were collected, weighed, and their activity content was measured in a gamma-counter. The ^64Cu activities were determined from measurements performed on the day of the experiment, while the ^57Co activities were measured after two weeks to allow the ^64Cu to decay. Tissue uptake of the radiopeptides was calculated as a percent of injected dose per gram tissue (%ID/g), with exception of the GI tract for which tissue uptake was calculated as %ID per whole sample.

PC-3 xenografts = experiment: in vivo; set-up: species or system BALB/c nu/nu mice; conditions: mouse; for Blood uptake / Kidney uptake / Liver uptake / Small int. uptake / Stomach uptake / Tumor uptake / Lung uptake / Pancreas uptake / GI tract uptake / Bone uptake / Spleen uptake: female, BALB/c nu/nu; for GI tract uptake: iv, 45 pmol/mouse
Protocol: as §1

| SMILES | Blood uptake (PC-3 xenografts; 3 h) | Kidney uptake (PC-3 xenografts; 3 h) | Liver uptake (PC-3 xenografts; 3 h) | Small int. uptake (PC-3 xenografts; 3 h) | Stomach uptake (PC-3 xenografts; 3 h) | Tumor uptake (PC-3 xenografts; 3 h) | Lung uptake (PC-3 xenografts; 24 h) | Pancreas uptake (PC-3 xenografts; 24 h) | GI tract uptake (PC-3 xenografts; 3 h) | GI tract uptake (PC-3 xenografts; 24 h) | Pancreas uptake (PC-3 xenografts; 3 h) | Blood uptake (PC-3 xenografts; 24 h) | Liver uptake (PC-3 xenografts; 24 h) | Tumor uptake (PC-3 xenografts; 24 h) | further results |
| --- | --- | --- | --- | --- | --- | --- | --- | --- | --- | --- | --- | --- | --- | --- | --- |
| CC(C)C[C@H](NC(=O)C[C@H](O)[C@H](CC(C)C)NC(=O)[C@H](Cc1c[nH]cn1)NC(=O)CNC(=O)[C@@H](NC(=O)[C@H](C)NC(=O)[C@H](Cc1c[nH]c2ccccc12)NC(=O)[C@H](CCC(N)=O)NC(=O)[C@@H](Cc1ccccc1)NC(=O)COCCOCCNC(=O)CN1CCN(CC(=O)O)CCN(CC(=O)O)CC1)C(C)C)C(N)=O [[^57Co]Co-NOTA-PEG2-RM26] | 0.02 %ID/g | 0.51 %ID/g | 0.06 %ID/g | 0.34 %ID/g | 0.59 %ID/g | 3.27 %ID/g | 0.02 %ID/g | 0.02 %ID/g | 0.26 %ID | 0.02 %ID | – | – | – | – | tissue uptake at 3 h (in vivo; Bone uptake): 0.11 %ID/g; tissue uptake at 24 h (in vivo; Muscle uptake): 0.01 %ID/g; tissue uptake at 24 h (in vivo; Spleen uptake): 0.04 %ID/g; tissue uptake at 24 h (in vivo; Tumor uptake): 0.31 %ID/g |
| CC(C)C[C@H](NC(=O)C[C@H](O)[C@H](CC(C)C)NC(=O)[C@H](Cc1c[nH]cn1)NC(=O)CNC(=O)[C@@H](NC(=O)[C@H](C)NC(=O)[C@H](Cc1c[nH]c2ccccc12)NC(=O)[C@H](CCC(N)=O)NC(=O)[C@@H](Cc1ccccc1)NC(=O)COCCOCCNC(=O)CCC(C(=O)O)N1CCN(CC(=O)O)CCN(CC(=O)O)CC1)C(C)C)C(N)=O (stereo partly drawn) [[^64Cu]Cu-NODAGA-PEG2-RM26, metal not drawn] | – | 0.90 %ID/g | 0.28 %ID/g | 0.24 %ID/g | 0.27 %ID/g | 2.31 %ID/g | 0.04 %ID/g | 0.04 %ID/g | 1.02 %ID | 0.03 %ID | 0.27 %ID/g | 0.02 %ID/g | 0.16 %ID/g | 0.16 %ID/g | Bone uptake (PC-3 xenografts; 3 h): 0.08 %ID/g; Lung uptake (PC-3 xenografts; 3 h): 0.12 %ID/g; Spleen uptake (PC-3 xenografts; 3 h): 0.05 %ID/g; Bone uptake (PC-3 xenografts; 24 h): 0.13 %ID/g; Kidney uptake (PC-3 xenografts; 24 h): 0.12 %ID/g; Small int. uptake (PC-3 xenografts; 24 h): 0.05 %ID/g; Spleen uptake (PC-3 xenografts; 24 h): 0.02 %ID/g; Stomach uptake (PC-3 xenografts; 24 h): 0.08 %ID/g; Muscle uptake (PC-3 xenografts; 24 h): 0.00 %ID/g |
| CC(C)C[C@H](NC(=O)C[C@H](O)[C@H](CC(C)C)NC(=O)[C@H](Cc1c[nH]cn1)NC(=O)CNC(=O)[C@@H](NC(=O)[C@H](C)NC(=O)[C@H](Cc1c[nH]c2ccccc12)NC(=O)[C@H](CCC(N)=O)NC(=O)[C@@H](Cc1ccccc1)NC(=O)COCCOCCNC(=O)CN1CCN(CC(=O)O)CCN(CC(=O)O)CC1)C(C)C)C(N)=O [[^64Cu]Cu-NOTA-PEG2-RM26, metal not drawn] | 0.06 %ID/g | – | 0.59 %ID/g | 0.72 %ID/g | 1.19 %ID/g | – | – | – | 0.76 %ID | 0.07 %ID | 1.31 %ID/g | 0.04 %ID/g | 0.49 %ID/g | 0.42 %ID/g | tissue uptake at 24 h (in vivo; Bone uptake): 0.15 %ID/g; tissue uptake at 3 h (in vivo; Kidney uptake): 0.46 %ID/g; tissue uptake at 24 h (in vivo; Kidney uptake): 0.25 %ID/g; tissue uptake at 3 h (in vivo; Muscle uptake): 0.02 %ID/g; tissue uptake at 24 h (in vivo; Small int. uptake): 0.12 %ID/g; tissue uptake at 3 h (in vivo; Spleen uptake): 0.1 %ID/g; tissue uptake at 24 h (in vivo; Stomach uptake): 0.14 %ID/g; tissue uptake at 3 h (in vivo; Tumor uptake): 3.94 %ID/g |
